Data taken from the supplement of paper PMC7125110.
± gives the standard error. This sample holds only a part of the variants without activity.

B1: glmS ribozyme (parent)
chain: AUAAAAGCGCCAGAACUACAGAAAUGUAGUUGACGAGGAGGAGGUUUAUCGAAUUUUCGGCGGAUGCCUCCAAA

Tests used:
Conditions in all cases: with glucosamine-6-phosphate
[1] = variants of: B1; test: self-cleavage kobs at 160 uM GlcN6P; higher = faster cleavage; RNA array
Method in brief: (§1)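 Using a hybridised Cy3 probe at 37 °C, barcoded ribozyme variants transcribed in situ by E. coli RNA polymerase on sequenced MiSeq chips were monitored across tiles imaged over ~14 h. The flow contained glucosamine-6-phosphate from 40 μM to 10 mM in HEPES/KCl/Mg(OAc)2 buffer. Signals were normalised to baseline and to non-cleaving reference variants before per-tile medians were fit to one- or two-exponential decays to yield kobs. Weighted Michaelis–Menten fits across concentrations gave kcat and KM.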

[2] = variants of: B1; test: self-cleavage kobs at 640 uM GlcN6P; higher = faster cleavage; RNA array
Method in brief: as §1

[3] = variants of: B1; test: self-cleavage kobs at 2500 uM GlcN6P; higher = faster cleavage; RNA array
Method in brief: as §1

[4] = variants of: B1; test: self-cleavage kobs at 10000 uM GlcN6P; higher = faster cleavage; RNA array
Method in brief: as §1

Variant | self-cleavage kobs at 160 uM GlcN6P [1] [s⁻¹] | self-cleavage kobs at 640 uM GlcN6P [2] [s⁻¹] | self-cleavage kobs at 2500 uM GlcN6P [3] [s⁻¹] | self-cleavage kobs at 10000 uM GlcN6P [4] [s⁻¹]
AUAAAAGCGCCAGAGCUACAGAAAUGUAGUUGACGUGGAGGAGGUUUAUAGAAUUUUCGACGGAUGCCUCCAAA [A15G A36U C50A G60A] | < 1e-05 | < 1e-05 | – | –
AUAAAAGCGCCAGGACUACAGAAAUGUAGUUGACGAGGAGGAGGUUUAUCUAAUUUUCGGCGGAUGCCUCCAAA [A14G G51U] | < 1e-05 | – | – | –
AUAAAAGCGCCAGUACUACAGAAAUGUAGAUGACGAGGAGGAGGUUUAUGGAAUUUUGGGCGGAUGCCUCCAAA [A14U U30A C50G C58G] | 0.000116 ± 2.1e-05 | 9.41e-05 ± 1.7e-05 | 0.000131 ± 2.3e-05 | –
AUAAAAGCGCCAGAGCUACAGAAAUGUAGUUGUCGAGGAUGAGGUUUAUCGAAUUUUCGGCGGAUGGCUCCAAA [A15G A33U G40U C67G] | < 1e-05 | – | < 1e-05 | –
AUAAAAGCGCCAGACCUACAGAAAUGUAGUUUACUAGGAGGAGGUUUAUCGAAUUUUCGGCGGAUGCCUCCAAA [A15C G32U G35U] | < 1e-05 | – | < 1e-05 | –
AUAAAAGCGCCAGGACUACAGAAAUGUAGUUGACGAGGAGGAGGUUUAUCGACUUUUCGGCGGAUGCCUCCAAA [A14G A53C] | 0.00202 ± 0.00065 | 0.00488 ± 0.0012 | 0.01 ± 0.0023 | 0.0384 ± 0.016
AUAAAAGCGCCAGGACUACAGAAAUGUAGUUGACGAGGAGGAGGUUUAUCGAAUUUACGGCGGAUGCCUCCAAA [A14G U57A] | 4.7e-05 ± 1.1e-05 | 0.000139 ± 2.9e-05 | 0.000418 ± 4.7e-05 | –
AUAAAAGCGCCAGGACUACAGAAAUGUAGUUGACGAGGGGGAGGUUUAUCGAAUUUUCGGCGGAUGCCACCAAA [A14G A39G U69A] | 0.000285 ± 7.7e-05 | 0.000936 ± 0.00031 | 0.000786 ± 0.00024 | –
AUAAAAGCGCCAGACGUACAGAAAUGUAGUUGACGAGGAGGAGGUUUAUGGAAUUUUCGGCGGCUGCCUCCAAA [A15C C16G C50G A64C] | 0.000208 ± 6.7e-05 | 7.03e-05 ± 2.7e-05 | 5.92e-05 ± 1.8e-05 | –
AUAAAAGCGCCAGUACUACAGAAAUGUAGUUGACGAGGCGGAGGUUUAUCGCAUUUUCGGCGGAUGCCUCCAAA [A14U A39C A52C] | < 1e-05 | < 1e-05 | – | –
AUAAAAGCGCCAGCACUACAGAAAUGUAGUUGACGAGGAGGAGGUUUAUCAAAUUUUAGGCGGAUGCGUCCAAA [A14C G51A C58A C68G] | 6.87e-05 ± 1.6e-05 | 8.48e-05 ± 2.9e-05 | 8.83e-05 ± 2.5e-05 | –
AUAAAAGCGCCAGGGCUACAGAAAUGUAGUUGACGAGGAGGAGGUUUAUCGAAUGUUCGGCGGGUGCCUCCAAA [A14G A15G U55G A64G] | 0.00524 ± 0.0017 | 0.00775 ± 0.002 | – | –
AUAAAAGCGCCAGACCUACAGAAAUGUAGUUGCCGAGGAGGAGGUUUAUCGAAUCUUCGGCGGAUGCCUCCAAA [A15C A33C U55C] | < 1e-05 | < 1e-05 | < 1e-05 | –
AUAAAAGCGCCAGGACUACAGAAAUGUAGUUGACGAGGAGGAGGUUUAUCGAAUAUUCGGCGGCUGCCUUCAAA [A14G U55A A64C C70U] | 3.8e-05 ± 1.7e-05 | 0.000343 ± 8.3e-05 | 0.000958 ± 0.00021 | 0.000686 ± 0.00019
AUAAAAGCGCCAGACCUACAGAAAUGUAGUUGACGAGGAGGAGGUUUAUCGAAUUUUUGGAGGAUGCCUCCAAA [A15C C58U C61A] | 0.0001 ± 4.6e-05 | 6.79e-05 ± 2.5e-05 | – | –
AUAAAAGCGCCAGACCUACAGAAAUGUAGUUGACGAGCAGGAGGUUUAUCGAAUUUUCGGCGGAUGCCUGCAAA [A15C G38C C70G] | < 1e-05 | – | – | –
AUAAAAGCGCCAGAGCUACAGAAAUGUAGUUGGCGAGGAGGAGGUUUAUCGAAUUUUCGGCGGAUGCCUCCAAA [A15G A33G] | < 1e-05 | < 1e-05 | – | < 1e-05

Variant | self-cleavage kobs at 160 uM GlcN6P [1] [s⁻¹] | self-cleavage kobs at 640 uM GlcN6P [2] [s⁻¹] | self-cleavage kobs at 2500 uM GlcN6P [3] [s⁻¹] | self-cleavage kobs at 10000 uM GlcN6P [4] [s⁻¹]
AUAAAAGCGCCAGGACUACAGAAAUGUAGUUGCCGAGGAGGAGGUUUAUCGAAUUUUCGGCGGAUGCCUACAAA [A14G A33C C70A] | < 1e-05 | – | – | –
AUAAAAGCGCCAGCACUACAGAAAUGUAGUUGACGAAGAGGAAGUUUAUCGAAUUUUUGGCGGAUGCGUCCAAA [A14C G37A G43A C58U C68G] | < 1e-05 | – | – | –
AUAAAAGCGCCAGACGUACAGAAAUGUAGUUGACGAGGAGGAGGUUUAUCGAAUUUUCGGCGGAUGGCUCCAAA [A15C C16G C67G] | < 1e-05 | – | – | –
AUAAAAGCGCCAGGACUACAGAAAUGUACUUGACGAGGAGGAGGUUUAUCGAAUUUUCGGUGGAUGCCUCUAAA [A14G G29C C61U C71U] | < 1e-05 | < 1e-05 | – | < 1e-05
AUAAAAGCGCCAGUACUACAGAAAUGUAGUUGACGAGGAGGAGGUUGAUCGAAUUUUCGGCGGAUGCGUCCAAA [A14U U47G C68G] | 7.2e-05 ± 2.9e-05 | 0.000125 ± 2.8e-05 | 5.08e-05 ± 2.3e-05 | –
AUAAAAGCGCCAGACCUACAGAAAUGUAGUUGGCGAGGAGGAGAUUCAUCGAAUUUUCGGCAGAUGCCUCCAAA [A15C A33G G44A U47C G62A] | < 1e-05 | – | – | –
AUAAAAGCGCCAGUAAUACAGAAAUGUAGUUGCCGAGGAGGAGGUUUAUCGAAUUUUCGGCGGAUGCCUCCAAA [A14U C16A A33C] | < 1e-05 | < 1e-05 | – | –
AUAAAAGCGCCAGACCUACAGAAAUGUAGUUGAAGAGGAGGAGUUUUAUCGAAUUUUCGGCGGAUGCCUCCAAA [A15C C34A G44U] | < 1e-05 | < 1e-05 | < 1e-05 | –
AUAAAAGCGCCAGUACUACAGAAAUGUAGUUGACUAGGGGGAGGUUUAUUGAAUUUUCGGCGGAUGCCUCCAAA [A14U G35U A39G C50U] | < 1e-05 | – | – | –
AUAAAAGCGCCAGUACUACAGAAAUGUAGUUGACGAGGAGGAGGUUUAUCGAAUAUUCGGCGGAUGCCACCAAA [A14U U55A U69A] | 0.000101 ± 2.7e-05 | – | 8.95e-05 ± 1.1e-05 | 4.58e-05 ± 2e-05
AUAAAAGCGCCAGUGCUACAGAAAUGUAGUUGACCAGGAGGAGGUUUAUCGAAUUUUCGGCGGAUGCCUCCAAA [A14U A15G G35C] | < 1e-05 | – | < 1e-05 | < 1e-05
AUAAAAGCGCCAGCACUACAGAAAUGUAGUUGACGAGGAUGACGUUUAUUGAAUUUUCGGCGGAUGCCUCCAAA [A14C G40U G43C C50U] | < 1e-05 | – | < 1e-05 | –
AUAAAAGCGCCAGUACUACAGAAAUGUAAUUGACGAGGAGGAGGUUUAUCGCAUUUUCGGUGGAUGCAUCGAAA [A14U G29A A52C C61U C68A C71G] | 0.000123 ± 3.3e-05 | 9.79e-05 ± 2.9e-05 | 0.00014 ± 5e-05 | –
AUAAAAGCGCCAGACCUACAGAAAUGUAGGUGAUGAGGAAGAGGUUUAUCGAAUAUUCGGCGGAUGCCUCCAAA [A15C U30G C34U G40A U55A] | < 1e-05 | – | – | –
AUAAAAGCGCCAGUGCUACAGAAAUGUAGUUGACGAGGAGGAGGUUUAACGAUUUUUCGGCGGAUGCCUCCAAA [A14U A15G U49A A53U] | < 1e-05 | – | – | < 1e-05
AUAAAAGCGCCAGUACUACAGAAAUGUAGUUGACGAGGAGGAGGUUUAUCGAAUUUUCGGCGGACGCCCCCAAA [A14U U65C U69C] | < 1e-05 | – | – | –
AUAAAAGCGCCAGACCUACAGAAAUGUAGUUGACGAGGAGGAGGUUUAUCGAAUUUUCGCUGGAUGCCUCCAAA [A15C G60C C61U] | < 1e-05 | – | – | –
